{"source": "patent US20130209454A1", "assay_in_all_cases": "cell-based or functional assay", "key": {"[1]": {"target": "HIV-1 Env of strain WITO4160.33 (HIV-1)"}, "[2]": {"target": "HIV-1 Env of strain ZM197M.PB7 (HIV-1)"}, "[3]": {"target": "Env of HIV-1 strain ZM214M.PL15 (HIV-1)"}, "[4]": {"target": "Env of HIV-1 strain ZM135M.PL10a (HIV-1)"}, "[5]": {"target": "Env of HIV-1 strain Q23.17 (HIV-1)"}, "[6]": {"target": "Env of HIV-1 strain Du172.17 (HIV-1)"}, "[7]": {"target": "Env of HIV-1 strain REJO4541.67 (HIV-1)"}, "[8]": {"target": "HIV-1 Env of strain CAP210.2.00.E8 (HIV-1)"}, "[9]": {"target": "Env of HIV-1 strain 620345.c01 (HIV-1)"}, "[10]": {"target": "HIV-1 Env of strain 235-47 (HIV-1)"}, "[11]": {"target": "Env of HIV-1 strain P0402_c2_11 (HIV-1)"}, "[12]": {"target": "Env of HIV-1 strain CNE17 (HIV-1)"}, "[13]": {"target": "HIV-1 Env of strain 1006_11_C3_1601 (HIV-1)"}, "[14]": {"target": "Env of HIV-1 strain C3347.c11 (HIV-1)"}, "[15]": {"target": "Env of HIV-1 strain 62357_14_D3_4589 (HIV-1)"}, "[16]": {"target": "Env of HIV-1 strain T250-4 (HIV-1)"}, "[17]": {"target": "Env of HIV-1 strain 235-47 (HIV-1)"}, "[18]": {"target": "Env of HIV-1 strain 1006_11_C3_1601 (HIV-1)"}, "[19]": {"target": "Env of HIV-1 strain 7030102001E5(Rev-) (HIV-1)"}, "[20]": {"target": "HIV-1 Env of strain CAP45.2.00.G3 (HIV-1)"}, "[21]": {"target": "Env of HIV-1 strain 928-28 (HIV-1)"}, "[22]": {"target": "HIV-1 Env of strain C4118.c09 (HIV-1)"}, "[23]": {"target": "HIV-1 Env of strain 211-9 (HIV-1)"}, "[24]": {"target": "Env of HIV-1 strain X1632_S2_B10 (HIV-1)"}, "[25]": {"target": "HIV-1 Env of strain REJO4541.67 (HIV-1)"}, "[26]": {"target": "Env of HIV-1 strain X2131_C1_B5 (HIV-1)"}, "[27]": {"target": "Env of HIV-1 strain 211-9 (HIV-1)"}, "[28]": {"target": "HIV-1 Env of strain Ce1172_H1 (HIV-1)"}, "[29]": {"target": "Env of HIV-1 strain T255-34 (HIV-1)"}, "[30]": {"target": "Env of HIV-1 strain 231966.c02 (HIV-1)"}, "[31]": {"target": "HIV-1 Env of strain Q769.d22 (HIV-1)"}, "[32]": {"target": "Env of HIV-1 strain AC10.0.29 (HIV-1)"}, "[33]": {"target": "HIV-1 Env of strain CNE52 (HIV-1)"}, "[34]": {"target": "HIV-1 Env of strain 6240_08_TA5_4622 (HIV-1)"}, "[35]": {"target": "Env of HIV-1 strain SC05_8C11_2344 (HIV-1)"}, "[36]": {"target": "Env of HIV-1 strain Q461.e2 (HIV-1)"}, "[37]": {"target": "Env of HIV-1 strain 1012_11_TC21_3257 (HIV-1)"}, "[38]": {"target": "Env of HIV-1 strain X1254_c3 (HIV-1)"}, "[39]": {"target": "HIV-1 Env of strain 246F C1G (HIV-1)"}, "[40]": {"target": "Env of HIV-1 strain X2088_c9 (HIV-1)"}, "[41]": {"target": "HIV-1 Env of strain WEAU_d15_410_787 (HIV-1)"}, "[42]": {"target": "Env of HIV-1 strain Q769.d22 (HIV-1)"}, "[43]": {"target": "Env of HIV-1 strain CNE20 (HIV-1)"}, "[44]": {"target": "Env of HIV-1 strain 9004SS_A3_4 (HIV-1)"}, "[45]": {"target": "HIV-1 Env of strain Q23.17 (HIV-1)"}, "[46]": {"target": "Env of HIV-1 strain 191084 B7-19 (HIV-1)"}, "[47]": {"target": "HIV-1 Env of strain TRJO4551.58 (HIV-1)"}, "[48]": {"target": "HIV-1 Env of strain T257-31 (HIV-1)"}, "[49]": {"target": "HIV-1 Env of strain CNE5 (HIV-1)"}, "[50]": {"target": "Env of HIV-1 strain CAAN5342.A2 (HIV-1)"}, "[51]": {"target": "Env of HIV-1 strain 6041.v3.c23 (HIV-1)"}}}
{"substance": "NIH45-46 (antibody)", "values": [{"measurement": "IC50, pseudovirus neutralization", "setting": "[1]", "result": 0.06, "unit": "µg/mL"}, {"measurement": "IC50, pseudovirus neutralization", "setting": "[2]", "result": 0.15, "unit": "µg/mL"}, {"measurement": "IC80", "setting": "[3]", "result": 0.59, "unit": "µg/mL"}, {"measurement": "IC80", "setting": "[4]", "result": 2.79, "unit": "µg/mL"}, {"measurement": "IC80", "setting": "[5]", "result": 0.5, "unit": "µg/mL"}, {"measurement": "IC80", "setting": "[6]", "result": "> 50", "unit": "µg/mL"}, {"measurement": "IC80", "setting": "[7]", "result": 0.035, "unit": "µg/mL"}, {"measurement": "IC50, pseudovirus neutralization", "setting": "[8]", "result": "> 50", "unit": "µg/mL"}, {"measurement": "IC80", "setting": "[9]", "result": "> 50", "unit": "µg/mL"}, {"measurement": "IC50, pseudovirus neutralization", "setting": "[10]", "result": 0.3, "unit": "µg/mL"}, {"measurement": "IC80", "setting": "[11]", "result": 0.214, "unit": "µg/mL"}, {"measurement": "IC80", "setting": "[12]", "result": 0.734, "unit": "µg/mL"}, {"measurement": "IC50, pseudovirus neutralization", "setting": "[13]", "result": 0.027, "unit": "µg/mL"}, {"measurement": "IC80", "setting": "[14]", "result": 0.094, "unit": "µg/mL"}, {"measurement": "IC80", "setting": "[15]", "result": 0.19, "unit": "µg/mL"}, {"measurement": "IC80", "setting": "[16]", "result": "> 50", "unit": "µg/mL"}, {"measurement": "IC80", "setting": "[17]", "result": 1.49, "unit": "µg/mL"}, {"measurement": "IC80", "setting": "[18]", "result": 0.196, "unit": "µg/mL"}, {"measurement": "IC80", "setting": "[19]", "result": 0.63, "unit": "µg/mL"}, {"measurement": "IC50, pseudovirus neutralization", "setting": "[20]", "result": "> 50", "unit": "µg/mL"}, {"measurement": "IC80", "setting": "[21]", "result": 0.64, "unit": "µg/mL"}, {"measurement": "IC50, pseudovirus neutralization", "setting": "[22]", "result": 0.14, "unit": "µg/mL"}, {"measurement": "IC50, pseudovirus neutralization", "setting": "[23]", "result": "> 50", "unit": "µg/mL"}, {"measurement": "IC80", "setting": "[24]", "result": "> 50", "unit": "µg/mL"}, {"measurement": "IC50, pseudovirus neutralization", "setting": "[25]", "result": 0.014, "unit": "µg/mL"}, {"measurement": "IC80", "setting": "[26]", "result": 0.88, "unit": "µg/mL"}, {"measurement": "IC80", "setting": "[27]", "result": "> 50", "unit": "µg/mL"}, {"measurement": "IC50, pseudovirus neutralization", "setting": "[28]", "result": "> 50", "unit": "µg/mL"}, {"measurement": "IC80", "setting": "[29]", "result": 3.44, "unit": "µg/mL"}, {"measurement": "IC80", "setting": "[30]", "result": 9.64, "unit": "µg/mL"}, {"measurement": "IC50, pseudovirus neutralization", "setting": "[31]", "result": 0.009, "unit": "µg/mL"}, {"measurement": "IC80", "setting": "[32]", "result": 1.93, "unit": "µg/mL"}, {"measurement": "IC50, pseudovirus neutralization", "setting": "[33]", "result": 0.03, "unit": "µg/mL"}, {"measurement": "IC50, pseudovirus neutralization", "setting": "[34]", "result": 0.44, "unit": "µg/mL"}, {"measurement": "IC80", "setting": "[35]", "result": 0.38, "unit": "µg/mL"}, {"measurement": "IC80", "setting": "[36]", "result": 0.291, "unit": "µg/mL"}, {"measurement": "IC80", "setting": "[37]", "result": 0.04, "unit": "µg/mL"}, {"measurement": "IC80", "setting": "[38]", "result": 0.107, "unit": "µg/mL"}, {"measurement": "IC50, pseudovirus neutralization", "setting": "[39]", "result": "> 50", "unit": "µg/mL"}, {"measurement": "IC80", "setting": "[40]", "result": "> 50", "unit": "µg/mL"}, {"measurement": "IC50, pseudovirus neutralization", "setting": "[41]", "result": 0.005, "unit": "µg/mL"}, {"measurement": "IC80", "setting": "[42]", "result": 0.033, "unit": "µg/mL"}, {"measurement": "IC80", "setting": "[43]", "result": "> 50", "unit": "µg/mL"}, {"measurement": "IC80", "setting": "[44]", "result": 0.65, "unit": "µg/mL"}, {"measurement": "IC50, pseudovirus neutralization", "setting": "[45]", "result": 0.14, "unit": "µg/mL"}, {"measurement": "IC80", "setting": "[46]", "result": 0.07, "unit": "µg/mL"}, {"measurement": "IC50, pseudovirus neutralization", "setting": "[47]", "result": 0.04, "unit": "µg/mL"}, {"measurement": "IC50, pseudovirus neutralization", "setting": "[48]", "result": 0.49, "unit": "µg/mL"}, {"measurement": "IC50, pseudovirus neutralization", "setting": "[49]", "result": 0.09, "unit": "µg/mL"}, {"measurement": "IC80", "setting": "[50]", "result": 0.4, "unit": "µg/mL"}, {"measurement": "IC80", "setting": "[51]", "result": 0.04, "unit": "µg/mL"}]}
